In patent publication US20160109449A1 (JULIUS MAXIMILIANS UNIVERSITAET WUERZBURG, published 2016):
Read-outs that look alike come from different tables or passages of the source.

What was measured:
[1] = biological target: IsaA oligopeptide SEQ ID NO: 38 (Staphylococcus aureus); test: peptide array on glass slide, fluorescent secondary antibody
[2] = biological target: IsaA oligopeptide SEQ ID NO: 62 (Staphylococcus aureus); test: as above
[3] = biological target: IsaA oligopeptide SEQ ID NO: 63 (Staphylococcus aureus); test: as above
[4] = biological target: IsaA oligopeptide SEQ ID NO: 26 (Staphylococcus aureus); test: as above
[5] = biological target: IsaA oligopeptide SEQ ID NO: 22 (Staphylococcus aureus); test: as above
[6] = biological target: IsaA oligopeptide SEQ ID NO: 53 (Staphylococcus aureus); test: as above
[7] = biological target: IsaA oligopeptide SEQ ID NO: 44 (Staphylococcus aureus); test: as above
[8] = biological target: IsaA oligopeptide SEQ ID NO: 37 (Staphylococcus aureus); test: as above
[9] = biological target: IsaA oligopeptide SEQ ID NO: 48 (Staphylococcus aureus); test: as above
[10] = biological target: IsaA oligopeptide SEQ ID NO: 33 (Staphylococcus aureus); test: as above
[11] = biological target: IsaA oligopeptide SEQ ID NO: 47 (Staphylococcus aureus); test: as above
[12] = biological target: IsaA oligopeptide SEQ ID NO: 25 (Staphylococcus aureus); test: as above
[13] = biological target: IsaA oligopeptide SEQ ID NO: 51 (Staphylococcus aureus); test: as above
[14] = biological target: IsaA oligopeptide SEQ ID NO: 59 (Staphylococcus aureus); test: as above
[15] = biological target: IsaA oligopeptide SEQ ID NO: 23 (Staphylococcus aureus); test: as above
[16] = biological target: IsaA oligopeptide SEQ ID NO: 20 (Staphylococcus aureus); test: as above
[17] = biological target: IsaA oligopeptide SEQ ID NO: 27 (Staphylococcus aureus); test: as above
[18] = biological target: IsaA oligopeptide SEQ ID NO: 9 (Staphylococcus aureus); test: as above
[19] = biological target: IsaA oligopeptide SEQ ID NO: 43 (Staphylococcus aureus); test: as above
[20] = biological target: IsaA oligopeptide SEQ ID NO: 61 (Staphylococcus aureus); test: as above
[21] = biological target: T1, recombinant IsaA protein of Staphylococcus aureus (29 kDa immunodominant antigen IsaA) (Staphylococcus aureus, UniProt Q2FV52 30-233, limits assumed); test: SPR (BIACORE 2000), biotinylated IsaA on streptavidin chip, antibody as analyte
T1 construct: Coated as rIsaA in the ELISA; In the first SPR experiment it was N-biotinylated with sulfo-NHS-LC-biotin (mostly at a single site) and immobilised on streptavidin; In the second SPR experiment it was the analyte in solution; also called rIsaA; 29 kDa IsaA antigen
T1 sequence (looked up): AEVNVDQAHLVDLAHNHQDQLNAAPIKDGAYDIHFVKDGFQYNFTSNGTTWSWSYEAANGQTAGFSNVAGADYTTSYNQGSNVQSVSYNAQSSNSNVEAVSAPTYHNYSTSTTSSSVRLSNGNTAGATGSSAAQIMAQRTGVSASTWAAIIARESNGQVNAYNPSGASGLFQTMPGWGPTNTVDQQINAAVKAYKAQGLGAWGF
Protocol: The amount of the immobilized antigen corresponds to about 100 resonance units [RU] measured by means of the BIACORE®2000 system.
Interaction analyses were performed using HBS150 buffer (10 mM HEPES pH7.4, 150 mM NaCl, 3.4 mM EDTA). Sensorgrams were recorded at a flow rate of 10 μl/min at 25° C. The association and dissociation time was set to 10 min. The chips were regenerated after each cycle with different regeneration solutions (A: 1 mM CH₃COOH, 1 M NaCl, pH 3; B: 4 M MgCl₂; C: 1 mM CH₃COOH, 1 M NaCl, 6 M Urea, pH 3) for 2 min.

[22] = biological target: T2, IsaA oligopeptide SEQ ID NO: 49 (Staphylococcus aureus); test: peptide array on glass slide, fluorescent secondary antibody;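 note: binding of a hybridoma-secreted monoclonal antibody to immobilized oligopeptide spots, compared with control antibodies, detected through a fluorescence-labeled secondary antibody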
T2 construct: Synthetic 15-mer of IsaA, spotted on a glass slide
T2 peptide: AAQIMAQRTGVSAST
Protocol: (§1) Each oligopeptide was immobilized on a small spot on a glass side. Binding of the monoclonal antibodies secreted by the hybridoma cell line DSM ACC2987 and of control antibodies to these spots was examined upon incubation with these antibodies by binding of fluorescence labeled secondary antibodies and detecting fluorescence intensities.

[23] = biological target: T3, IsaA oligopeptide SEQ ID NO: 22 (Staphylococcus aureus); test: as above
T3 construct: Synthetic 15-mer of IsaA, spotted on a glass slide
T3 peptide: APIKDGAYDIHFVKD
Protocol: as §1

[24] = biological target: T4, IsaA oligopeptide SEQ ID NO: 42 (Staphylococcus aureus); test: as above
T4 construct: Synthetic 15-mer of IsaA, spotted on a glass slide
T4 peptide: TYHNYSTSTTSSSVR
Protocol: as §1

[25] = biological target: T5, IsaA oligopeptide SEQ ID NO: 55 (Staphylococcus aureus); test: as above
T5 construct: Synthetic 15-mer of IsaA, spotted on a glass slide
T5 peptide: NGQVNAYNPSGASGL
Protocol: as §1

[26] = biological target: T6, IsaA oligopeptide SEQ ID NO: 37 (Staphylococcus aureus); test: as above
T6 construct: Synthetic 15-mer of IsaA, spotted on a glass slide
T6 peptide: QSVSYNAQSSNSNVE
Protocol: as §1

[27] = biological target: T7, IsaA oligopeptide SEQ ID NO: 63 (Staphylococcus aureus); test: as above
T7 construct: Synthetic 15-mer of IsaA, spotted on a glass slide
T7 peptide: NAAVKAYKAQGLGAW
Protocol: as §1

[28] = biological target: T8, IsaA oligopeptide SEQ ID NO: 9 (Staphylococcus aureus); test: as above
T8 construct: Synthetic 15-mer of IsaA, spotted on a glass slide
T8 peptide: MKKTIMASSLAVALG
Protocol: as §1

[29] = biological target: T9, IsaA oligopeptide SEQ ID NO: 20 (Staphylococcus aureus); test: as above
T9 construct: Synthetic 15-mer of IsaA, spotted on a glass slide
T9 peptide: NHQDQLNAAPIKDGA
Protocol: as §1

[30] = biological target: T10, IsaA oligopeptide SEQ ID NO: 56 (Staphylococcus aureus); test: as above
T10 construct: Synthetic 15-mer of IsaA, spotted on a glass slide
T10 peptide: NAYNPSGASGLFQTM
Protocol: as §1

[31] = biological target: T11, IsaA oligopeptide SEQ ID NO: 34 (Staphylococcus aureus); test: as above
T11 construct: Synthetic 15-mer of IsaA, spotted on a glass slide
T11 peptide: DYTTSYNQGSDVQSV
Protocol: as §1

[32] = biological target: T12, IsaA oligopeptide SEQ ID NO: 45 (Staphylococcus aureus); test: as above
T12 construct: Synthetic 15-mer of IsaA, spotted on a glass slide
T12 peptide: SVRLSNGNTAGATGS
Protocol: as §1

[33] = biological target: T13, IsaA oligopeptide SEQ ID NO: 10 (Staphylococcus aureus); test: as above
T13 construct: Synthetic 15-mer of IsaA, spotted on a glass slide
T13 peptide: IMASSLAVALGVTGY
Protocol: as §1

[34] = biological target: T14, IsaA oligopeptide SEQ ID NO: 19 (Staphylococcus aureus); test: as above
T14 construct: Synthetic 15-mer of IsaA, spotted on a glass slide
T14 peptide: DLAHNHQDQLNAAPI
Protocol: as §1

Molecule: control antibodies (peptide array) (antibody)
- Binding (fluorescence intensity) [1]: 97.7
- Binding (fluorescence intensity) [2]: 6.3
- Binding (fluorescence intensity) [3]: 57.7
- Binding (fluorescence intensity) [4]: 261
- Binding (fluorescence intensity) [5]: 26.3
- Binding (fluorescence intensity) [6]: 70.3
- Binding (fluorescence intensity) [7]: 114
- Binding (fluorescence intensity) [8]: -27.3
- Binding (fluorescence intensity) [9]: 398
- Binding (fluorescence intensity) [10]: -0.7
- Binding (fluorescence intensity) [11]: 14.7
- Binding (fluorescence intensity) [12]: -61.7
- Binding (fluorescence intensity) [13]: 58
- Binding (fluorescence intensity) [14]: 132
- Binding (fluorescence intensity) [15]: 367
- Binding (fluorescence intensity) [16]: 106
- Binding (fluorescence intensity) [17]: 81
- Binding (fluorescence intensity) [18]: 70
- Binding (fluorescence intensity) [19]: 44.3
- Binding (fluorescence intensity) [20]: 30.3

B1: monoclonal antibody MAB-UK-66 secreted by hybridoma cell line DSM ACC2987 (antibody, V domains shown)
VH: DVKLVESGGGLVKLGGSLKLSCSASGFTFSNYYMSWVRQTPEKRLELVADINGNGGSTYYPDTVKGRFTISRDNAKNTLYLQMSSLKSEDTALYYCVRRGGYYALDYWGQGTTVTVSS
VL: DVVMTQTPLSLPVSLGDQASISCRSSQSLVHINGNTYLHWYLQKPGQSPKLLIYRVSNRFSGVPDRFSGSGSGTDFTLKISRVEAEDLGVYFCSQSTHVPWTFGGGTKLELKR
notes: Monoclonal mouse antibody from a hybridoma; Detected with anti-mouse IgG; also called antibodies secreted by cell line DSM ACC2987; anti-IsaA MAB
- koff [21]: < 1e-05 s⁻¹
- Binding (fluorescence intensity) [22]: 399
- Binding (fluorescence intensity) [23]: 21500
- Binding (fluorescence intensity) [24]: 579
- Binding (fluorescence intensity) [25]: 1030
- Binding (fluorescence intensity) [26]: 139
- Binding (fluorescence intensity) [27]: 645
- Binding (fluorescence intensity) [28]: 273
- Binding (fluorescence intensity) [29]: 1050
- Binding (fluorescence intensity) [30]: 959
- Binding (fluorescence intensity) [31]: 29500
- Binding (fluorescence intensity) [32]: 235
- Binding (fluorescence intensity) [33]: 228
- Binding (fluorescence intensity) [34]: 31900
